Starred links: 1 amine or outer side, 2 acyl side, 3 side chain; linkers in the order of their positions; H or OH if unused. Non-standard residues stand in square brackets, D forms with d. Residues, ends and D or L forms follow the SMILES beside them. Groups on a side chain read outwards from the residue. *: point of attachment. C18 diacid = O=C(O)CCCCCCCCCCCCCCCCC(=O)*; γGlu = O=C(O)[C@H](CCC(=O)[*:2])N[*:1]; AEEA = NCCOCCOCC(=O)O; Aib = CC(C)(N)C(=O)O
T1: anti-target CRF1R receptor (UniProt P34998 24-415, limits assumed)
T1 sequence (looked up): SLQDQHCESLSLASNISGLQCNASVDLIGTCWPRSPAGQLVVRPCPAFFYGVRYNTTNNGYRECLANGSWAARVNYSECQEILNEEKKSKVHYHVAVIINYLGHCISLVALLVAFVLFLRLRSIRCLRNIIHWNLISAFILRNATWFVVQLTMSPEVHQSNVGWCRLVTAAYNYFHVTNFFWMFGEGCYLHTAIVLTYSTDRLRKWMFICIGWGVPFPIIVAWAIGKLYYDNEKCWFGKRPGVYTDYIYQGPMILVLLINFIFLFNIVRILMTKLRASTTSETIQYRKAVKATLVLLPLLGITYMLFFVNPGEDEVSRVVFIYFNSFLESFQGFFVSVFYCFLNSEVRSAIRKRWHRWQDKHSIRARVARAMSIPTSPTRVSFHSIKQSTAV

B1: peptide of SEQ ID NO: 167 (peptide)
peptide: Ac-IVLSLD[dV]PIGLK([AEEA-AEEA-γGlu-C18 diacid])QILLEQERQK[Aib]QREQAEKNEQILEQV-NH2
SMILES: CC[C@H](C)[C@H](NC(C)=O)C(=O)N[C@H](C(=O)N[C@@H](CC(C)C)C(=O)N[C@@H](CO)C(=O)N[C@@H](CC(C)C)C(=O)N[C@@H](CC(=O)O)C(=O)N[C@@H](C(=O)N1CCC[C@H]1C(=O)N[C@H](C(=O)NCC(=O)N[C@@H](CC(C)C)C(=O)N[C@@H](CCCCNC(=O)COCCOCCNC(=O)COCCOCCNC(=O)CC[C@H](NC(=O)CCCCCCCCCCCCCCCCC(=O)O)C(=O)O)C(=O)N[C@@H](CCC(N)=O)C(=O)N[C@H](C(=O)N[C@@H](CC(C)C)C(=O)N[C@@H](CC(C)C)C(=O)N[C@@H](CCC(=O)O)C(=O)N[C@@H](CCC(N)=O)C(=O)N[C@@H](CCC(=O)O)C(=O)N[C@@H](CCCNC(=N)N)C(=O)N[C@@H](CCC(N)=O)C(=O)N[C@@H](CCCCN)C(=O)NC(C)(C)C(=O)N[C@@H](CCC(N)=O)C(=O)N[C@@H](CCCNC(=N)N)C(=O)N[C@@H](CCC(=O)O)C(=O)N[C@@H](CCC(N)=O)C(=O)N[C@@H](C)C(=O)N[C@@H](CCC(=O)O)C(=O)N[C@@H](CCCCN)C(=O)N[C@@H](CC(N)=O)C(=O)N[C@@H](CCC(=O)O)C(=O)N[C@@H](CCC(N)=O)C(=O)N[C@H](C(=O)N[C@@H](CC(C)C)C(=O)N[C@@H](CCC(=O)O)C(=O)N[C@@H](CCC(N)=O)C(=O)N[C@H](C(N)=O)C(C)C)[C@@H](C)CC)[C@@H](C)CC)[C@@H](C)CC)C(C)C)C(C)C
B2: peptide of SEQ ID NO: 166 (peptide)
peptide: Ac-IVLSLD[dV]PIKLK([AEEA-AEEA-γGlu-C18 diacid])QILLEQERQK[Aib]QREQAEKNEQILEQV-NH2
SMILES: CC[C@H](C)[C@H](NC(C)=O)C(=O)N[C@H](C(=O)N[C@@H](CC(C)C)C(=O)N[C@@H](CO)C(=O)N[C@@H](CC(C)C)C(=O)N[C@@H](CC(=O)O)C(=O)N[C@@H](C(=O)N1CCC[C@H]1C(=O)N[C@H](C(=O)N[C@@H](CCCCN)C(=O)N[C@@H](CC(C)C)C(=O)N[C@@H](CCCCNC(=O)COCCOCCNC(=O)COCCOCCNC(=O)CC[C@H](NC(=O)CCCCCCCCCCCCCCCCC(=O)O)C(=O)O)C(=O)N[C@@H](CCC(N)=O)C(=O)N[C@H](C(=O)N[C@@H](CC(C)C)C(=O)N[C@@H](CC(C)C)C(=O)N[C@@H](CCC(=O)O)C(=O)N[C@@H](CCC(N)=O)C(=O)N[C@@H](CCC(=O)O)C(=O)N[C@@H](CCCNC(=N)N)C(=O)N[C@@H](CCC(N)=O)C(=O)N[C@@H](CCCCN)C(=O)NC(C)(C)C(=O)N[C@@H](CCC(N)=O)C(=O)N[C@@H](CCCNC(=N)N)C(=O)N[C@@H](CCC(=O)O)C(=O)N[C@@H](CCC(N)=O)C(=O)N[C@@H](C)C(=O)N[C@@H](CCC(=O)O)C(=O)N[C@@H](CCCCN)C(=O)N[C@@H](CC(N)=O)C(=O)N[C@@H](CCC(=O)O)C(=O)N[C@@H](CCC(N)=O)C(=O)N[C@H](C(=O)N[C@@H](CC(C)C)C(=O)N[C@@H](CCC(=O)O)C(=O)N[C@@H](CCC(N)=O)C(=O)N[C@H](C(N)=O)C(C)C)[C@@H](C)CC)[C@@H](C)CC)[C@@H](C)CC)C(C)C)C(C)C

How the values were obtained:
[1] = test system: rat CRF2R α receptor; experiment: cAMP agonism at rat CRF2R α receptor in A7R5 rat aortic smooth muscle cells (Example 8); format: cell-based; conditions: cAMP HTRF, A7R5 rat aortic smooth muscle cell line, 0% HSA
Procedure: Cells were grown in a T175 culture flask placed at 37° C. to near confluence in medium (DMEM/10% FBS) and collected in 2 ml vials in cell culture medium containing 10% DMSO in a concentration of 10-50 million cells/ml. Each vial contained 1.8 ml cells. The vials were slowly frozen to −80° C. in isopropanol and then transferred in liquid nitrogen for storage. Prior to use, frozen cells were thawed quickly at 37° C. and washed (5 min at 900 rpm) with 20 ml cell buffer (1×HBSS; 20 mM HEPES; 0% or 0.1% HSA). Cells were resuspended in assay buffer (cell buffer plus 2 mM IBMX) and adjusted to a cell density of 1 million cells/ml. For measurement, 5 μl cells (final […]) and 5 μL of test compound were added to a 384-well plate, followed by incubation for 30 minutes at room temperature.
The CAMP content of cells was determined using a kit from Cisbio Corp. (cat. no. 62AM4PEC) based on HTRF (Homogenous Time Resolved Fluorescence). After addition of HTRF reagents diluted in lysis buffer (kit components), the plates were incubated for 1 h, followed by measurement of the fluorescence ratio at 665/620 nm. The percent activity value (E %) was calculated by setting 1000 nM of urocortin 2 (UCN2) as 100%. The in vitro potency of the compounds was quantified by determining the concentrations that caused 50% activation of maximal response (EC50).
Using the procedure described in Example 7, the activity of the compounds at the rat CRF2R α receptor was assessed. The A7R5 rat aortic smooth muscle cell line was used in this study.

[2] = target: T1, anti-target CRF1R receptor; experiment: cell-based or functional assay
[3] = target: rat CRF2R α receptor (rat, UniProt P47866 20-411); experiment: cell-based or functional assay
Sequence of rat CRF2R α receptor (rat, UniProt P47866 20-411) (P47866 20-411): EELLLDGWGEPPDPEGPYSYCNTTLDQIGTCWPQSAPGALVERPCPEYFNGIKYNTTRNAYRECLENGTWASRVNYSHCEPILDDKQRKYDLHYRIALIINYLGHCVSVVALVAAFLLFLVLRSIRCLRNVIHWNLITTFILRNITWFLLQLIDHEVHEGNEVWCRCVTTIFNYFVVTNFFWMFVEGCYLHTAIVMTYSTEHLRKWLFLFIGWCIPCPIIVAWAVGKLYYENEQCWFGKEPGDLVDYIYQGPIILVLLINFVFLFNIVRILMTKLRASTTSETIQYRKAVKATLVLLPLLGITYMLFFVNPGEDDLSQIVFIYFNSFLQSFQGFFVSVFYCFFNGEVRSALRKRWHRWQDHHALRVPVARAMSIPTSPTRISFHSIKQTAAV

| EC50 [1] [nM] | EC50[nM] 0% HSA (cAMP, CRF1R-overexpression CHO cells) [2] [nM] | Emax (%) (cAMP, CRF1R-overexpression CHO cells) [2] | EC50 [nM], 0% HSA (cAMP, A7R5 cells) [3] [nM] | Molecule |
| --- | --- | --- | --- | --- |
| 48.6 | – | – | – | CC[C@H](C)[C@H](NC(C)=O)C(=O)N[C@H](C(=O)N[C@@H](CC(C)C)C(=O)N[C@@H](CO)C(=O)N[C@@H](CC(C)C)C(=O)N[C@@H](CC(=O)O)C(=O)N[C@@H](C(=O)N1CCC[C@H]1C(=O)N[C@H](C(=O)N[C@@H](CCC(=O)O)C(=O)N[C@@H](CC(C)C)C(=O)N[C@@H](CCCCNC(=O)COCCOCCNC(=O)COCCOCCNC(=O)CC[C@H](NC(=O)CCCCCCCCCCCCCCCCC(=O)O)C(=O)O)C(=O)N[C@@H](CCC(N)=O)C(=O)N[C@H](C(=O)N[C@@H](CC(C)C)C(=O)N[C@@H](CC(C)C)C(=O)N[C@@H](CCC(=O)O)C(=O)N[C@@H](CCC(N)=O)C(=O)N[C@@H](CCC(=O)O)C(=O)N[C@@H](CCCNC(=N)N)C(=O)N[C@@H](CCC(N)=O)C(=O)N[C@@H](CCCCN)C(=O)NC(C)(C)C(=O)N[C@@H](CCC(N)=O)C(=O)N[C@@H](CCCNC(=N)N)C(=O)N[C@@H](CCC(=O)O)C(=O)N[C@@H](CCC(N)=O)C(=O)N[C@@H](C)C(=O)N[C@@H](CCC(=O)O)C(=O)N[C@@H](CCCCN)C(=O)N[C@@H](CC(N)=O)C(=O)N[C@@H](CCCCN)C(=O)N[C@@H](CCC(N)=O)C(=O)N[C@H](C(=O)N[C@@H](CC(C)C)C(=O)N[C@@H](CCC(=O)O)C(=O)N[C@@H](CCC(N)=O)C(=O)N[C@H](C(N)=O)C(C)C)[C@@H](C)CC)[C@@H](C)CC)[C@@H](C)CC)C(C)C)C(C)C [compound 162] (Ac-IVLSLD[dV]PIELK([AEEA-AEEA-γGlu-C18 diacid])QILLEQERQK[Aib]QREQAEKNKQILEQV-NH2) |
| 1.5 | – | – | – | CC[C@H](C)[C@H](N)C(=O)N[C@H](C(=O)N[C@@H](CC(C)C)C(=O)N[C@@H](CO)C(=O)N[C@@H](CC(C)C)C(=O)N[C@@H](CC(=O)O)C(=O)N[C@@H](C(=O)N1CCC[C@H]1C(=O)N[C@H](C(=O)N[C@@H](Cc1c[nH]cn1)C(=O)N[C@@H](CC(C)C)C(=O)N[C@@H](CCCCNC(=O)COCCOCCNC(=O)COCCOCCNC(=O)CC[C@H](NC(=O)CCCCCCCCCCCCCCCCC(=O)O)C(=O)O)C(=O)N[C@@H](CCC(N)=O)C(=O)N[C@H](C(=O)N[C@@H](CC(C)C)C(=O)N[C@@H](CC(C)C)C(=O)N[C@@H](CCC(=O)O)C(=O)N[C@@H](CCC(N)=O)C(=O)N[C@@H](CCC(=O)O)C(=O)N[C@@H](CCCNC(=N)N)C(=O)N[C@@H](CCC(N)=O)C(=O)N[C@@H](CCCCN)C(=O)NC(C)(C)C(=O)N[C@@H](CCC(N)=O)C(=O)N[C@@H](CCCNC(=N)N)C(=O)N[C@@H](CCC(=O)O)C(=O)N[C@@H](CCC(N)=O)C(=O)N[C@@H](C)C(=O)N[C@@H](CCC(=O)O)C(=O)N[C@@H](CCCCN)C(=O)N[C@@H](CC(N)=O)C(=O)N[C@@H](CCCCN)C(=O)N[C@@H](CCC(N)=O)C(=O)N[C@H](C(=O)N[C@@H](CC(C)C)C(=O)N[C@@H](CCC(=O)O)C(=O)N[C@@H](CCC(N)=O)C(=O)N[C@H](C(N)=O)C(C)C)[C@@H](C)CC)[C@@H](C)CC)[C@@H](C)CC)C(C)C)C(C)C [compound 163] (H-IVLSLD[dV]PIHLK([AEEA-AEEA-γGlu-C18 diacid])QILLEQERQK[Aib]QREQAEKNKQILEQV-NH2; N-terminus assumed) |
| – | > 1000 | -0.46 | 76.9 | B1 |
| – | > 1000 | 5.94 | 9.99 | B2 |
